Experimental data: US20020193570A1 (EMD LEXIGEN RESEARCH CENTER, published 2002)

T1: Fc-p40 fusion protein (human, UniProt P29460 23-328)
T1 construct: mature; Expected to dimerize through the Fc; not shown: human IgG1 Fc (vector pdC-Fc-X)
T1 sequence (looked up): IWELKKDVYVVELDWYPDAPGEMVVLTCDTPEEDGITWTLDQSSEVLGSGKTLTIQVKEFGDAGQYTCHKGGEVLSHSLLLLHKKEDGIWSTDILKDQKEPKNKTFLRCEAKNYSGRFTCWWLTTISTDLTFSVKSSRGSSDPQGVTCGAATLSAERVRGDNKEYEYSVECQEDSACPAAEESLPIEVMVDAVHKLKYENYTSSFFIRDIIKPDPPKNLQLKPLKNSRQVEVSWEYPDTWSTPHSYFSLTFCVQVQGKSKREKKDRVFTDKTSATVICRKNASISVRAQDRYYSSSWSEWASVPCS

T2: free p40 subunit of human IL-12 (human, UniProt P29460 23-328)
T2 construct: mature
T2 sequence (looked up): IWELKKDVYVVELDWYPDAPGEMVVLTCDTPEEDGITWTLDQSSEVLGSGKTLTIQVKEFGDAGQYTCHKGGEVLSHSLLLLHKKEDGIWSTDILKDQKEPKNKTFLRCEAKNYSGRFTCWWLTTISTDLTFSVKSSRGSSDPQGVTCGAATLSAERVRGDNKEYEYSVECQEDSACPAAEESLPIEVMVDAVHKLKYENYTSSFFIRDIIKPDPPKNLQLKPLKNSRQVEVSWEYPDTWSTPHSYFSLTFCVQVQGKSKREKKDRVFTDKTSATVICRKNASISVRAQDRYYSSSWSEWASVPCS


Key:
Fc-p40 fusion protein = molecular target: T1, Fc-p40 fusion protein; experiment: co-expression in 293 cells, protein A Sepharose precipitation of 35S-labelled supernatant, SDS-PAGE
Method: (§1) After 16 hr, the medium containing the precipitate was removed and replaced with fresh medium. After 3 days, the supernatant was removed and analyzed for production of transfected gene expression by ELISA, biological determination of IL-12 activity, or immunoprecipitation and analysis on SDS gels of radioactively labeled proteins. For labeling, medium without methionine was used to replace the growth medium on the second day of culture and ³⁵S-methionine (100 μCi/ml) is added. After an additional 16 hr incubation, the media was harvested, clarified by centrifugation (5 min at 13,000 rpm in a table top microcentrifuge) and incubated with protein A Sepharose beads (10 μl of bead volume per ml of culture supernatant). After 1 hr at room temperature, the beads were washed by repeated centrifugation and resuspension in PBS buffer containing 1% NP-40. The final pellet was resuspended in SDS-containing gel buffer and boiled for 2 min. After removing the beads by centrifugation, the supernatant was divided into two aliquots. Reducing agent (5% 2-mercaptoethanol) was added to one sample and both are boiled for 5 min prior to loading on an SDS polyacrylamide gel. After electrophoresis the gel was exposed to X-ray film (autoradiography).
(§2) An example of an analysis of the co-expression of various fusion proteins and individually expressed proteins, under reducing conditions, is shown in FIG. 2. […] The p40 subunit, on the other hand, was readily secreted when fused to Fc (lane 2). The p35 subunit was secreted when it could pair with the p40 subunit, either as an Fc-p35 fusion pairing with an Fc-p40 fusion protein (lane 3), the Fc-p35 pairing with free p40 (lane 4), or free p35 pairing with the Fc-p40 fusion protein (lane 5). In all cases of expression of a free subunit, together with a fusion protein, the free subunit assembles with the other subunit and forms a covalent, disulfide bond. […]

[1] = molecular target: T2, free p40 subunit of human IL-12; experiment: as above
Method: as §1, §2

Row | Binder | binding result (Fc-p40 fusion protein) | binding result [1]
1 | free p35 subunit of human IL-12 (ligand, UniProt P29459 23-219, looked up, mature) RNLPVATPDPGMFPCLHHSQNLLRAVSNMLQKARQTLEFYPCTSEEIDHEDITKDKTSTVEACLPLELTKNESCLNSRETSFITNGSCLASRKTSFMMALCLSSIYEDLKMYQVEFKTMNAKLLMDPKRQIFLDQNMLAVIDELMQALNFNSETVPQKSSLEEPDFYKTKIKLCILLHAFRIRAVTIDRVMSYLNAS | binds | 
2 | Fc-p35 fusion protein (Fc fusion, human, UniProt P29459 23-219, looked up, mature; Expected to dimerize through the Fc; Not secreted unless paired with p40; not shown: human IgG1 Fc (vector pdC-Fc-X)) RNLPVATPDPGMFPCLHHSQNLLRAVSNMLQKARQTLEFYPCTSEEIDHEDITKDKTSTVEACLPLELTKNESCLNSRETSFITNGSCLASRKTSFMMALCLSSIYEDLKMYQVEFKTMNAKLLMDPKRQIFLDQNMLAVIDELMQALNFNSETVPQKSSLEEPDFYKTKIKLCILLHAFRIRAVTIDRVMSYLNAS | binds | binds
